Assay [1] concerns the target biotinylated C3b (UniProt P01024). The experiment in a line: SPR, Biacore 3000; biotinylated C3b on streptavidin chip, peptide injected; 1:1 fit.
The target of assay [2] is T1, C3 purified from fresh human plasma (human, UniProt P01024 23-1663). Description: cell-based or functional assay.
In assay [3] the target is T1, C3 purified from fresh human plasma. The experiment in a line: cell-based or functional assay. This is another data set of the same source.
The target is the same in assay [4]. The experiment in a line: ITC; peptide titrated into C3, PBS, 25 C. On the procedure: (§1) ITC analysis. All ITC experiments were performed with the Microcal VP-ITC calorimeter (Microcal Inc., Northampton, Mass.), using protein concentrations of 1.8-5 μM C3 in the cell and peptide concentrations of 40-100 μM of individual compstatin analogs in the syringe. All titrations were performed in PBS (10 mM phosphate buffer with 150 mM NaCl, pH 7.4) at 25° C. using multiple peptide injections of 2-7 μL each. The raw isotherms were corrected for the heats of dilution by subtracting the isotherms representing peptide injections into the buffer. The resulting isotherms were fitted to a single site of sites models using Origin 7.0 software, and the model that produced the lowest χ² value was deemed to be appropriate for the respective data set. The Gibbs free energy was calculated as ΔG=ΔH−TΔS. Each experiment was repeated at least twice.
(§2) Characterization of binding thermodynamics.

The target is the same in assay [5]. The experiment in a line: ITC with C3; relative to peptide 14. On the procedure: as §1, §2
For assay [6], the target named is biotinylated C3b (UniProt P01024). Description: SPR on immobilised C3b; ratio relative to peptide 14.
The target of assay [7] is T1, C3 purified from fresh human plasma. Description: cell-based or functional assay. This is another data set of the same source.
For assay [8] the target is unchanged. Description: cell-based or functional assay. The source holds these as a separate data set.

Bridge positions count the residues as written; N and C are the ends. Square brackets hold non-standard residues; d marks the D form. Trp(1-Me) = Cn1cc(C[C@H](N)C(=O)O)c2ccccc21; NMeI = CC[C@H](C)[C@H](NC)C(=O)O; Nle = CCCC[C@H](N)C(=O)O; Sar = CNCC(=O)O

T1 sequence (P01024 23-1663): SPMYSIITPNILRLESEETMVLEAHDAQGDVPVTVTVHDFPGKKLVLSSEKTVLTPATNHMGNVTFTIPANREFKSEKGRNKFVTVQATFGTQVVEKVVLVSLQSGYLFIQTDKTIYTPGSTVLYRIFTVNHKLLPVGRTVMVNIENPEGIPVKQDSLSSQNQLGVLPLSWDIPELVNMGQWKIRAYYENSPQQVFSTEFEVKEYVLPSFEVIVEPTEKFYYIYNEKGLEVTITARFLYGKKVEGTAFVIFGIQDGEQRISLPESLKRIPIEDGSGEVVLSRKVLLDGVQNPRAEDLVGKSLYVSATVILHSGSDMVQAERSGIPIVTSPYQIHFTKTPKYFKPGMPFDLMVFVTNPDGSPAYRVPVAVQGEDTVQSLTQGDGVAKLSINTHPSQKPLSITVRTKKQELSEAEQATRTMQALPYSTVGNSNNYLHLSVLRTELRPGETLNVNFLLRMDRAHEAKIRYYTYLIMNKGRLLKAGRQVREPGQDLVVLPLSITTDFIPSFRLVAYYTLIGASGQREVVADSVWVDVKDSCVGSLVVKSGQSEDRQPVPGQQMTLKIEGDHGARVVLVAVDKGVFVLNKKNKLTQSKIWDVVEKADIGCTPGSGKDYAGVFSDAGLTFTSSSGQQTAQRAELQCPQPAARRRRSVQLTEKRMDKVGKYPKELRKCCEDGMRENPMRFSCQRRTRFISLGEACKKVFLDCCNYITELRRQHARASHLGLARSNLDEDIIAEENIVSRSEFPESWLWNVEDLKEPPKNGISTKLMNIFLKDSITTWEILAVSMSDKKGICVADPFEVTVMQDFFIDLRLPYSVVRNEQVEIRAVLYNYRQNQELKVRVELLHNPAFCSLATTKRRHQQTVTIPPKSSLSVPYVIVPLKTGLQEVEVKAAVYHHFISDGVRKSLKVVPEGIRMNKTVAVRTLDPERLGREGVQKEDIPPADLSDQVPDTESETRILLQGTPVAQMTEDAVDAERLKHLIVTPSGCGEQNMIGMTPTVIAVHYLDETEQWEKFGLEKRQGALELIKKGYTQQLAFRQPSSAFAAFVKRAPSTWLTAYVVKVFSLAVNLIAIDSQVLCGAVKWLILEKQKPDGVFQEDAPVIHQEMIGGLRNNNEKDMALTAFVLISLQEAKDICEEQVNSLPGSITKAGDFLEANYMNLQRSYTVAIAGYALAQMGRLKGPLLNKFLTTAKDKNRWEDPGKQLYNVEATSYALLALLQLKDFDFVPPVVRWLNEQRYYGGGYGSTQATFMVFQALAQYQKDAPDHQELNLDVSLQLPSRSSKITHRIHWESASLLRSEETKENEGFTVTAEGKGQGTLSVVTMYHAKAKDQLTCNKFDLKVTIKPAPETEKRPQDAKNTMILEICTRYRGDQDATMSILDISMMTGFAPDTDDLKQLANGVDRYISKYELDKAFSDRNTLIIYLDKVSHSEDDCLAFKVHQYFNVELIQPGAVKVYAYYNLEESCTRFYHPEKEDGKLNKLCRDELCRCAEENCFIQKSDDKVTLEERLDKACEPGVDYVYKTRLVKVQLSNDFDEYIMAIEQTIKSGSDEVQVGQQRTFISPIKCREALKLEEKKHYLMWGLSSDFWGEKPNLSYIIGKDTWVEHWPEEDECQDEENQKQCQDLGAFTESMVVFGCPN

B1: Ac-Ic[CV(1-MeW)QDW(N-MeG)AHRC](N-MeI)-NH2 (peptide)
peptide: Ac-ICV[Trp(1-Me)]QDW[Sar]AHRC[NMeI]-NH2
modifications: disulfide 2-12
SMILES: CC[C@H](C)[C@H](NC(C)=O)C(=O)N[C@H]1CSSC[C@@H](C(=O)N(C)[C@H](C(N)=O)[C@@H](C)CC)NC(=O)[C@H](CCCNC(=N)N)NC(=O)[C@H](Cc2c[nH]cn2)NC(=O)[C@H](C)NC(=O)CN(C)C(=O)[C@H](Cc2c[nH]c3ccccc23)NC(=O)[C@H](CC(=O)O)NC(=O)[C@H](CCC(N)=O)NC(=O)[C@H](Cc2cn(C)c3ccccc23)NC(=O)[C@H](C(C)C)NC1=O
notes: Sar^8, (NMe)Ile^13; also called peptide 21; analog 21
Consider B1, for which, in assay [1], the Kd came to 0.0023 µM, the koff came out at 0.0035 s⁻¹ and the kon was found to be 1.5e+06 M⁻¹ s⁻¹. Also, the “IC50, inhibition of classical pathway complement activation, ELISA” value (from here on “IC50, inhibition”) in assay [2] was found to be 0.062 µM. Besides, in assay [3], the “rP, relative potency compared to peptide 14” value (from here on “rP, relative potency”) came to 3.3 fold. Moreover, in assay [4], the “-TΔS” value was 23.8 kJ/mol, the ΔG was -47.7 kJ/mol and the ΔH is -71.5 kJ/mol. Moreover, in assay [5], the “-TΔΔS” value was -5.44 kJ/mol, the “rKD ITC” value came out at 3.3 fold, the ΔΔG was -2.93 kJ/mol and the ΔΔH was found to be 2.09 kJ/mol. Further, in assay [6], the rKD SPR amounted to 5.2 fold, the rka was determined as 1.5 fold and the rkd came to 3.2 fold. Further, in assay [7], the “Fold change in activity (IC50) relative to SEQ ID NO:4” value turned out to be 3.32 fold.

B2: Ac-Ile-c[Cys-Val-Trp(Me)-Gln-Asp-Trp-Sar-Ala-His-Arg-Cys]-Ile-NH2 (peptide)
peptide: Ac-ICV[Trp(1-Me)]QDW[Sar]AHRCI-NH2
modifications: disulfide 2-12
SMILES: CC[C@H](C)[C@H](NC(=O)[C@@H]1CSSC[C@H](NC(=O)[C@@H](NC(C)=O)[C@@H](C)CC)C(=O)N[C@@H](C(C)C)C(=O)N[C@@H](Cc2cn(C)c3ccccc23)C(=O)N[C@@H](CCC(N)=O)C(=O)N[C@@H](CC(=O)O)C(=O)N[C@@H](Cc2c[nH]c3ccccc23)C(=O)N(C)CC(=O)N[C@@H](C)C(=O)N[C@@H](Cc2c[nH]cn2)C(=O)N[C@@H](CCCNC(=N)N)C(=O)N1)C(N)=O
notes: Sar^8, Ile^13; also called peptide 17; Ac-Ic[CV(1-MeW)QDW(N-MeG)AHRC]I-NH2
As for B2, in assay [8], the “IC50 (nM, CP), inhibition of classical pathway complement activation, ELISA, human serum” value came out at 92 nM and the “IC50 fold change relative to peptide 17” value was found to be 1 fold. For the same molecule, in assay [1], the Kd came out at 0.0044 µM, the koff was determined as 0.0066 s⁻¹ and the kon came to 1.5e+06 M⁻¹ s⁻¹. Also, in assay [2], the “IC50, inhibition” value amounted to 0.092 µM. For the same molecule, in assay [3], the “rP, relative potency” value was 2.2 fold. Also, in assay [4], the “-TΔS” value stood at 12.1 kJ/mol, the ΔG was -46.9 kJ/mol and the ΔH was -59 kJ/mol. Besides, in assay [5], the “-TΔΔS” value was -17.2 kJ/mol, the “rKD ITC” value was found to be 2.4 fold, the ΔΔG was -2.09 kJ/mol and the ΔΔH amounted to 14.6 kJ/mol. Besides, in assay [6], the rKD SPR worked out at 2.7 fold, the rka turned out to be 1.5 fold and the rkd was determined as 1.7 fold. Further, the “Fold change in activity (IC50) relative to SEQ ID NO:4” value in assay [7] was 2.24 fold.

B3: Ac-Ic[CV(1-MeW)QDW(N-MeG)AHRC](Nle)-NH2 (peptide)
peptide: Ac-ICV[Trp(1-Me)]QDW[Sar]AHRC[Nle]-NH2
modifications: disulfide 2-12
SMILES: CCCC[C@H](NC(=O)[C@@H]1CSSC[C@H](NC(=O)[C@@H](NC(C)=O)[C@@H](C)CC)C(=O)N[C@@H](C(C)C)C(=O)N[C@@H](Cc2cn(C)c3ccccc23)C(=O)N[C@@H](CCC(N)=O)C(=O)N[C@@H](CC(=O)O)C(=O)N[C@@H](Cc2c[nH]c3ccccc23)C(=O)N(C)CC(=O)N[C@@H](C)C(=O)N[C@@H](Cc2c[nH]cn2)C(=O)N[C@@H](CCCNC(=N)N)C(=O)N1)C(N)=O
With B3, in assay [1], the Kd was determined as 0.0044 µM, the koff was 0.0066 s⁻¹ and the kon was determined as 1.5e+06 M⁻¹ s⁻¹. For the same molecule, the “IC50, inhibition” value in assay [2] came out at 0.109 µM. Besides, the “rP, relative potency” value in assay [3] worked out at 1.9 fold. For the same molecule, in assay [6], the rKD SPR came to 2.7 fold, the rka was found to be 1.5 fold and the rkd is 1.7 fold. Also, in assay [7], the “Fold change in activity (IC50) relative to SEQ ID NO:4” value turned out to be 1.9 fold.

B4: Ac-Ic[CV(1-MeW)QDW(N-MeG)AHRC]L-NH2 (peptide)
peptide: Ac-ICV[Trp(1-Me)]QDW[Sar]AHRCL-NH2
modifications: disulfide 2-12
SMILES: CC[C@H](C)[C@H](NC(C)=O)C(=O)N[C@H]1CSSC[C@@H](C(=O)N[C@@H](CC(C)C)C(N)=O)NC(=O)[C@H](CCCNC(=N)N)NC(=O)[C@H](Cc2c[nH]cn2)NC(=O)[C@H](C)NC(=O)CN(C)C(=O)[C@H](Cc2c[nH]c3ccccc23)NC(=O)[C@H](CC(=O)O)NC(=O)[C@H](CCC(N)=O)NC(=O)[C@H](Cc2cn(C)c3ccccc23)NC(=O)[C@H](C(C)C)NC1=O
In assay [1], B4 showed a Kd of 0.0046 µM, a koff of 0.006 s⁻¹ and a kon of 1.3e+06 M⁻¹ s⁻¹. Moreover, the “IC50, inhibition” value in assay [2] is 0.108 µM. The “rP, relative potency” value in assay [3] stood at 1.9 fold. Further, in assay [6], the rKD SPR came out at 2.6 fold, the rka is 1.3 fold and the rkd came out at 1.9 fold. Moreover, the “Fold change in activity (IC50) relative to SEQ ID NO:4” value in assay [7] worked out at 1.91 fold.

The record behind these values is patent US20120178694A1 (University of Pennsylvania, published 2012).
